Biological target: the molecule itself
Assay: SEC; 150 µg purified S-HO variant (expressed alone, or full length S-HO co-expressed and co-purified with CPR) on Superdex 200 10/300 GL; 50 mM TEA-HCl, 250 mM NaCl, pH 8.0; peaks blotted with HO antibodies

B1: Strep-tagged full length heme oxygenase-1 (S-HO-1) (enzyme, human, UniProt P09601 1-288, looked up)
chain: MERPQPDSMPQDLSEALKEATKEVHTQAENAEFMRNFQKGQVTRDGFKLVMASLYHIYVALEEEIERNKESPVFAPVYFPEELHRKAALEQDLAFWYGPRWQEVIPYTPAMQRYVKRLHEVGRTEPELLVAHAYTRYLGDLSGGQVLKKIAQKALDLPSSGEGLAFFTFPNIASATKFKQLYRSRMNSLEMTPAVRQRVIEEAKTAFLLNIQLFEELQELLTHDTKDQSPSRAPGLRQRASNKVQDSAPVETPRGKPPLNTRSQAPLLRWVLTLSFLVATVAVGLYAM
notes: human heme oxygenase 1 (HO-1), cloned from human placenta cDNA, full length; also called full length HO-1; source: Sf9, recombinant baculovirus; not shown: Strep-tag II, N-terminal, kept
binding result: binds

B2: Strep-tagged full length heme oxygenase-2 (S-HO-2) (enzyme, human, UniProt P30519 1-316, looked up)
chain: MSAEVETSEGVDESEKKNSGALEKENQMRMADLSELLKEGTKEAHDRAENTQFVKDFLKGNIKKELFKLATTALYFTYSALEEEMERNKDHPAFAPLYFPMELHRKEALTKDMEYFFGENWEEQVQCPKAAQKYVERIHYIGQNEPELLVAHAYTRYMGDLSGGQVLKKVAQRALKLPSTGEGTQFYLFENVDNAQQFKQLYRARMNALDLNMKTKERIVEEANKAFEYNMQIFNELDQAGSTLARETLEDGFPVHDGKGDMRKCPFYAAEQDKGALEGSSCPFRTAMAVLRKPSLQFILAAGVALAAGLLAWYYM
notes: human heme oxygenase 2 (HO-2), cloned from human placenta cDNA, full length; also called full length HO-2; source: Sf9, recombinant baculovirus; not shown: Strep-tag II, N-terminal, kept
binding result: binds

Reference: publication PMC3335857, “Heme Oxygenase Isoforms Differ in Their Subcellular Trafficking during Hypoxia and Are Differentially Modulated by Cytochrome P450 Reductase” (PLoS ONE, 2012)
